Assay results published in patent US20210230265A1 (Sanofi, published 2021).

Biological target: T1, interleukin-33 (IL-33) (human, UniProt O95760 95-270, limits assumed)
T1 construct: This is endogenous circulating IL-33 in treated patients, not a recombinant construct; also called total IL-33
T1 sequence (looked up): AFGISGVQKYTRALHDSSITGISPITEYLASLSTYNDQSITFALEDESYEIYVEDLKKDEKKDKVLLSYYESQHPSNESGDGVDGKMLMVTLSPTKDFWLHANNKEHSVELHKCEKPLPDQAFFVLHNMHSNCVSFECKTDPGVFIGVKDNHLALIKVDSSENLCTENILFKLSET
Assay: Target mediated drug disposition (TMDD) model of total IL-33 vs. time in serum, driven by PopPK-predicted PK, all studies; an in vivo model estimate, not a direct binding assay; in vivo TMDD model estimate from clinical total IL-33 data, not a direct binding assay
Description: Total TL-33 vs. time was modelled using a target mediated drug disposition (TMDD) approach. All studies were included in the analysis. PopPK predicted PK for each individual was used to drive the total IL-33 dynamics. […] (This was based on the baseline IL-33 assumption of ½ lower limit of quantification (LLOQ).) Based on the computed threshold, 300 mg Q2W, 300 mg Q4W, and 300 mg Q8W may be able to meet the threshold target for achieving 90% target engagement.

Kd: 7.01 nM
B1: SAR440340 (antibody, human IgG4 S228P, kappa, V domains shown)
VH: VQLVESGGNLEQPGGSLRLSCTASGFTFSRSAMNWVRRAPGKGLEWVSGISGSGGRTYYADSVKGRFTISRDNSKNTLYLQMNSLSAEDTAAYYCAKDSYTTSWYGGMDVWGHGTTVTVSS
VL: IQMTQSPSSVSASVGDRVTITCRASQGIFSWLAWYQQKPGKAPKLLIYAASSLQSGVPSRFSGSGSGTDFTLTISSLQPEDFAIYYCQQANSVPITFGQGTRLEIKR
notes: Human anti-IL-33 antibody; also called REGN3500; itepekimab
